# Results from PMC10056440 (2023).
# No end group written: not given here.
# What was measured:
# [1] = target: mKate2-Kv1.3 M1-D52 truncated (Homo sapiens, UniProt P22001); test: competition with AgTx2-GFP, confocal, Neuro 2A cells
# [2] = target: KcsA-Kv1.1 pore blocker binding site (Homo sapiens, UniProt Q09470); test: competition with AgTx2-GFP, confocal, spheroplasts
# [3] = target: KcsA-Kv1.3 pore blocker binding site (Homo sapiens, UniProt P22001); test: competition with AgTx2-GFP, confocal, spheroplasts
# [4] = target: KcsA-Kv1.6 pore blocker binding site (Homo sapiens, UniProt P17658); test: competition with AgTx2-GFP, confocal, spheroplasts
# KcsA-Kv1.6 pore blocker binding site, sequence (P17658 398-431): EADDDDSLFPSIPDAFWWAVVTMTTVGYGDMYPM
# KcsA-Kv1.1 pore blocker binding site, sequence (Q09470 348-381): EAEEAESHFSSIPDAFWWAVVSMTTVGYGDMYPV
# KcsA-Kv1.3 pore blocker binding site, sequence (P22001 420-453): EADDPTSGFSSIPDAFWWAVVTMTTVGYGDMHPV
# mKate2-Kv1.3 M1-D52 truncated, sequence (P22001 53-575): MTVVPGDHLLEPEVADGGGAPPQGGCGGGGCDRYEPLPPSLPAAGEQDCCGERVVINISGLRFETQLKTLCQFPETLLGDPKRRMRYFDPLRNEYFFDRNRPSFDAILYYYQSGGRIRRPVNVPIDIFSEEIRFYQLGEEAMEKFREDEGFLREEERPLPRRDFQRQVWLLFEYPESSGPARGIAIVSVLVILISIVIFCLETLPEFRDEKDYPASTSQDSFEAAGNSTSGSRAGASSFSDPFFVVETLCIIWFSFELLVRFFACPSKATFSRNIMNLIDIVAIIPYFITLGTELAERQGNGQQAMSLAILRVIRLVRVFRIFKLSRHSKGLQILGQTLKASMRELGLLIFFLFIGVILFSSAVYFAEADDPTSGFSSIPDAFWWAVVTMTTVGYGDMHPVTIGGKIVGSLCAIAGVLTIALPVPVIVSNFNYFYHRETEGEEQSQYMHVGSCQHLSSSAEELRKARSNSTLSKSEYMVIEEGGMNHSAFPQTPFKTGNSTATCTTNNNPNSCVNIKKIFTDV
binder,measurement,setting,value
"GVPINVSCTGSPQCIKPCKDAGMRFGKCMNRKCHCTPK (ends and bridges not checked; cysteine pairing not given here) [AgTx2, listing 1 of 4 here]",Ki,[1],0.7 nM
"GVPINVSCTGSPQCIKPCKDAGMRFGKCMNRKCHCTPK (ends and bridges not checked; cysteine pairing not given here) [AgTx2, listing 2 of 4 here]",Ki,[2],3.7 nM
"GVEINVKCSGSPQCLKPCKDAGMRFGKCMNRKCHCTPK (ends and bridges not checked; cysteine pairing not given here) [KTx1, listing 1 of 3 here]",Ki,[2],3.8 nM
"GVEINVKCSGSPQCLKPCKDAGMRFGKCMNRKCHCTPK (ends and bridges not checked; cysteine pairing not given here) [KTx1, listing 2 of 3 here]",Ki,[3],0.032 nM
"GVEINVKCSGSPQCLKPCKDAGMRFGKCMNRKCHCTPK (ends and bridges not checked; cysteine pairing not given here) [KTx1, listing 3 of 3 here]",Ki,[4],0.016 nM
"GVPINVSCTGSPQCIKPCKDAGMRFGKCMNRKCHCTPK (ends and bridges not checked; cysteine pairing not given here) [AgTx2, listing 3 of 4 here]",Ki,[3],0.039 nM
"GVPINVSCTGSPQCIKPCKDAGMRFGKCMNRKCHCTPK (ends and bridges not checked; cysteine pairing not given here) [AgTx2, listing 4 of 4 here]",Ki,[4],0.027 nM
